This assay concerns the target ACE-2 receptor on the surface of Vero E6 cells (African green monkey (endogenous in Vero E6)). Put plainly: flow cytometry on cells; about 10^6 Vero-E6 cells blocked with FACS buffer and 5% normal mouse serum, incubated with RBD (8 ug/mL in the methods; different concentrations in the results) 2 h at 37 C; detected with rabbit monoclonal anti-S1 and Alexa Fluor 488 anti-rabbit IgG; percent of positive cells.

As for “commercially available recombinant RBD expressed in insect cells (Cat No. Z03479, GenScript) (from UniProt P0DTC2) (domain or fragment)”, the percent of cells bound turned out to be 78%.
The result for “Recombinant SARS-CoV-2 Spike RBD (Pro330-Ser530), purified (from UniProt P0DTC2 330-530) (domain or fragment)” reads 60%.

(Values after publication PMC9397949.)
